According to PMC5703284 (Proceedings of the National Academy of Sciences of the …, 2017):

How the values were obtained:
human ActRIIA-Fc protein = human ActRIIA-Fc protein (human, UniProt P27037)
human ActRIIB-Fc protein = molecular target: T1, human ActRIIB-Fc protein (human, UniProt Q13705)
T1 sequence: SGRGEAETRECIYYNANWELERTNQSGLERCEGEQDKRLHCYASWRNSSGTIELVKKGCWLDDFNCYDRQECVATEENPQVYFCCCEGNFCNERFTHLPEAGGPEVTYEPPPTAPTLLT

Chain of human ActRIIA-Fc protein (P27037 20-135): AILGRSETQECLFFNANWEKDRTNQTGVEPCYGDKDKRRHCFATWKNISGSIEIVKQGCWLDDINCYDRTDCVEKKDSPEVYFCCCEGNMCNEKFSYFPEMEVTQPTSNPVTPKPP

B1: activin A (ligand)
chain: GLECDGKVNICCKKQFFVSFKDIGWNDWIIAPSGYHANYCEGECPSHIAGTSGSSLSFHSTVINHYRMRGHSPFANLKSCCVPTKLRPMSMLYYDDGQNIIKKDIQNMIVEECGCS
- Kd (human ActRIIA-Fc protein): 5.3 pM
- Kd (human ActRIIB-Fc protein): 6.5 pM
